The values that follow come from publication PMC5080769, “Bacillus subtilis 5′-nucleotidases with various functions and substrate specificities” (BMC Microbiology, 2016).

Test in all cases: phosphate release, molybdate assay, A820
Data set [1] concerns the target T1, YqeG (Bacillus subtilis, UniProt P54452).
T1 construct: gene pgpP; full-length ORF, C-terminal His6 (pET28b, NdeI/HindIII), expressed in E. coli BL21(DE3), TALON purified
In kind it is biochemical. The settings on record: 10 mM substrate, 12 h, 50 mM Tris-HCl pH 7.8, 10 mM MgCl2, 250 mM KCl, 1 mM NH4Cl, 37 °C.

Data set [2] has as its target T2, AraL (Bacillus subtilis, UniProt P94526).
T2 construct: full-length ORF, C-terminal His6 (pET28b, NdeI/XhoI), expressed in E. coli BL21(DE3), TALON purified
In kind it is biochemical. The settings on record: 10 mM substrate, 12 h, 50 mM Tris-HCl pH 7.8, 10 mM MgCl2, 250 mM KCl, 1 mM NH4Cl, 37 °C.

Substrate in data set [3]: Nc1ccn([C@@H]2O[C@H](COP(=O)(O)O)[C@@H](O)[C@H]2O)c(=O)n1
The format is biochemical, Bacillus subtilis. The settings on record: 50 mM Tris-HCl pH 7.8, 10 mM MgCl2, 250 mM KCl, 1 mM NH4Cl, 37 °C.

Substrate in data set [4]: O=c1ccn([C@@H]2O[C@H](COP(=O)(O)O)[C@@H](O)[C@H]2O)c(=O)[nH]1
The format is biochemical, Bacillus subtilis. The following applies: 50 mM Tris-HCl pH 7.8, 10 mM MgCl2, 250 mM KCl, 1 mM NH4Cl, 37 °C.

Substrate in data set [5]: O=P(O)(O)OC(CO)CO
In kind it is biochemical, Bacillus subtilis. The settings on record: 50 mM Tris-HCl pH 7.8, 10 mM MgCl2, 250 mM KCl, 1 mM NH4Cl, 37 °C.

Substrate in data set [6]: Nc1nc2c(ncn2[C@@H]2O[C@H](COP(=O)(O)O)[C@@H](O)[C@H]2O)c(=O)[nH]1
In kind it is biochemical, Bacillus subtilis. The following applies: 50 mM Tris-HCl pH 7.8, 10 mM MgCl2, 250 mM KCl, 1 mM NH4Cl, 37 °C.

Substrate in data set [7]: Nc1ncnc2c1ncn2[C@@H]1O[C@H](COP(=O)(O)O)[C@@H](O)[C@H]1O
The format is biochemical, Bacillus subtilis. The settings on record: 50 mM Tris-HCl pH 7.8, 10 mM MgCl2, 250 mM KCl, 1 mM NH4Cl, 37 °C.

What is called Km is the substrate concentration at which the rate is half of its maximum.

T1 sequence (P54452 whole entry): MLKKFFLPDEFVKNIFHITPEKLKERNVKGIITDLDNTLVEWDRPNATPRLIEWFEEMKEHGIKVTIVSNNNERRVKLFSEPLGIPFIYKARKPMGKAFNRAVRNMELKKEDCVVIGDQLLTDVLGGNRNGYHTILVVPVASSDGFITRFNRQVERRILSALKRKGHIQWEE
T2 sequence (P94526 whole entry): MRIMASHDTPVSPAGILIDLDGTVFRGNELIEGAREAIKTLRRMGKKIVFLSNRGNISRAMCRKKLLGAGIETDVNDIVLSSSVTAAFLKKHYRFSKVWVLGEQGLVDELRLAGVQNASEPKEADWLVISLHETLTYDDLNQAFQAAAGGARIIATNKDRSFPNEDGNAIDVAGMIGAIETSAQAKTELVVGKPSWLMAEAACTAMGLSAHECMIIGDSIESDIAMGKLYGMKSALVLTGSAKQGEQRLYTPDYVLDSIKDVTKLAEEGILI

Regarding `Nc1nc2c(ncn2[C@@H]2O[C@H](COP(=O)(O)O)[C@@H](O)[C@H]2O)c(=O)[nH]1` [GMP], the “phosphate release, molybdate assay, A820” value in data set [1] is “YqeG hydrolyzed GMP and G6P only at the higher concentration”.
In the case of `O=P(O)(O)OC[C@H]1OC(O)[C@H](O)[C@@H](O)[C@@H]1O` (some centres unmarked) [G6P], the “phosphate release, molybdate assay, A820” value in data set [2] is “AraL activity was enhanced particularly against G6P at the higher concentration”; in data set [1] it was “YqeG hydrolyzed GMP and G6P only at the higher concentration”.

B1: YktC (Bacillus subtilis subsp. subtilis str. 168) (protein)
chain: MTNWTEIDEIAKKWIREAGARITQSMHESLTIETKSNPNDLVTNIDKETEKFFIDRIQETFPGHRILGEEGQGDKIHSLEGVVWIIDPIDGTMNFVHQQRNFAISIGIFENGEGKIGLIYDVVHDELYHAFSGRGAYMNETKLAPLKETVIEEAILAINATWVTENRRIDQSVLAPLVKRVRGTRSYGSAALELANVAAGRIDAYITMRLAPWDYAAGCVLLNEVGGTYTTIEGEPFTFLENHSVLAGNPSIHKTIFEEYLHARK
notes: full-length ORF, C-terminal His6 (pET28b, BamHI/HindIII), expressed in E. coli BL21(DE3), TALON purified
For B1, the Km in data set [3] turned out to be 1.6 ± 0.017 mM; in data set [4], 2.4 ± 0.052 mM; in data set [5], 0.49 ± 0.035 mM; in data set [6], 1.9 ± 0.026 mM.

B2: YcsE (Bacillus subtilis subsp. subtilis str. 168) (protein)
chain: MSVQREDVDIKLIAIDMDGTLLNDEQLISDENRKAIREAEDKGVYVVISTGRTLMTCRELAESLKLSSFLITANGSEIWDSNFNLVERKLLHTDHIQMMWDLRNKHNTNFWASTVNKVWRGEFPENITDHEWLKFGFDIEDDDIRNEVLEELRKNKELEITNSSPTNIEVNALGINKAAALAKVTEKLGFTMENVMAMGDSLNDIAMIKEAGLGVAMGNAQDIVKETADYITDTNIEDGVAKAIRHWVL
notes: full-length ORF, C-terminal His6 (pET28b, NdeI/XhoI), expressed in E. coli BL21(DE3), TALON purified
As for B2, the Km in data set [3] turned out to be 4.7 ± 0.23 mM; in data set [4], 8.5 ± 0.69 mM; in data set [7] it was 8.6 ± 0.80 mM; in data set [6] it was 10.3 ± 0.12 mM.
